In general, Km refers to the substrate concentration at which the rate is half of its maximum. As a reminder, the Vmax is the top rate of the reaction or transport when substrate is in excess. The kcat is the number of substrate molecules converted per active site and unit of time at saturation. As usually defined, the kcat/Km is the second-order rate constant that governs catalysis at low substrate concentration.

These results are taken from patent US20250034601A1, “HETERODIMERIC BENZALDEHYDE SYNTHASE, METHODS OF PRODUCING, AND USES THEREOF” (Purdue Research Foundation, priority 2021, published 2025).

Substrate in this data set: CC(C)(COP(=O)(O)OP(=O)(O)OC[C@H]1O[C@@H](n2cnc3c(N)ncnc32)[C@H](O)[C@@H]1OP(=O)(O)O)[C@@H](O)C(=O)NCCC(=O)NCCSC(=O)c1ccccc1
Description: purified protein, by the assay type. The data set is classed as biochemical, Arabidopsis thaliana. Particulars: other: apparent, measured at 4 mM NADPH, pH 6.5, 28° C.
Description: The reaction was initiated by adding a protein and incubated at 28° C. for 30 minutes, and the reactions were then terminated by adding 100 μL of 100% ice-cold methanol (MeOH). The BS enzyme assays were performed at an appropriate enzyme concentration so that reaction velocity was proportional to enzyme concentration and linear during the incubation time period. Km and Vmax were determined by non-linear fit to the Michaelis-Menten equation using Graphpad Prism, v8.2.0.
Triplicate assays were performed for all data points.
After centrifugation at 15,000 g for 20 minutes, 5 μL of the supernatant were subjected to high-performance liquid chromatography (HPLC) analysis using an Agilent 1260 Infinity II system (Agilent Technologies, Inc., Santa Clara, CA) equipped with an InfinityLab Poroshell 120 EC-C18 column (3.0×150 mm, 2.7 μm) maintained at 35° C. Products were separated with a 15-minute linear gradient of 10% aqueous acetonitrile solution to 100% acetonitrile and monitored at 248 nm using a diode array detector (DAD). Benzaldehyde was identified by comparing the retention time and absorption spectrum with authentic standard.
Quantitation was achieved by using standard curve generated from authentic standard and product verification was performed by GC-MS.
Recombinant BS proteins were produced in E. coli by expressing the corresponding coding regions (CDS) subcloned into an expression vector pMAL-c5X (New England BioLabs, Ipswich, MA) containing a maltose binding protein (MBP) tag using ClonExpress II One Step Cloning Kit (Vazyme Biotech Co., Piscataway, NJ).
After sequence verification, the desired plasmids were transformed into Rosetta2 (DE3) pLysS competent cells (MilliporeSigma, Burlington, MA). Single colonies were picked and cultured overnight in 2 ml LB medium containing 100 mg/L carbenicillin and 34 mg/L chloramphenicol at 37° C. Overnight cultures were then diluted 100-fold with LB medium and continued to culture at 37° C. until OD600 reached ˜0.5.
After cooling the cell culture on ice for 10 minutes, isopropyl β-D-1-thiogalactopyranoside (IPTG) was added to a final concentration of 0.1 mM and cells were incubated at 28° C. with shaking for additional 2.5 to 3 hours. After harvesting cells by centrifugation, their lysis and protein purification were performed according to the manufacturer's protocol of Amylose Resin (New England Biolabs, Ipswich, MA).

B1: Arabidopsis thaliana benzaldehyde synthase (AtBS), recombinant heterodimer AtBSα (SEQ ID NO: 5) / AtBSβ (SEQ ID NO: 8), wild type, MBP-tagged (Arabidopsis … (protein)
chain 1: MSNHQTQVLKLLEPWCELKDKVVLVTGASSGIGREICLDLAKAGCQVIAAARRVDRLNSLCSEINSFSSTGIQAAALELDVSSDAATIQKAVREAWDIFGKIDALINNAGIRGNVKSSLDLSEDEWDNVFKTNLKGPWLVSKHVCMLMRDAKRGGSVINISSIAGIRGMLPGGLAYACSKGGVDTMSRMMALELGVHKIRVNSIAPGLFKSEITQGLMQKEWLKNVTERTVPLKVQQTVDPGLTSLVRYLIHDSSQYISGNTYIVDSGATLPGVPIFSSL
chain 2: MENPAKRVLMTSNGDEVSRNIAFHLAKHGCKLVMMGNEGSLRSIVDKIRDSIEGAFPADVIALDMESDSEVAFHAAVQKAWELSGHFDAFLNSYTYQGKVQDILQVSQDEFHRITKINLTAPWFLLKAVATRMKDHGSGGSIVFMATIASGERALYPGADAYASTSAAIHQLVRASAMSLGKHKIRVNMISRGLHLDDEYTASVGRDRAQKLVKDAAPLGQWLNPDTDLYSTVIYLISDGSRFMTGTTVLVDGAQSLTRPRLKSYM
notes: full-length CDS from flower cDNA
With B1, the Km turned out to be 242.8 ± 28.2 µM, the maximal velocity (Vmax) worked out at 0.864 µmol/min/mg, the kcat is 2.12 ± 0.08 s⁻¹ and the kcat/Km was found to be 8700 ± 1100 M⁻¹ s⁻¹.
